From publication doi:10.1101/2020.09.10.291369, “In vivo and in vitro mechanistic characterization of a clinically relevant PolγA mutation”

Target: T1, POLγA WT (UniProt P54099 26-1218)
T1 sequence: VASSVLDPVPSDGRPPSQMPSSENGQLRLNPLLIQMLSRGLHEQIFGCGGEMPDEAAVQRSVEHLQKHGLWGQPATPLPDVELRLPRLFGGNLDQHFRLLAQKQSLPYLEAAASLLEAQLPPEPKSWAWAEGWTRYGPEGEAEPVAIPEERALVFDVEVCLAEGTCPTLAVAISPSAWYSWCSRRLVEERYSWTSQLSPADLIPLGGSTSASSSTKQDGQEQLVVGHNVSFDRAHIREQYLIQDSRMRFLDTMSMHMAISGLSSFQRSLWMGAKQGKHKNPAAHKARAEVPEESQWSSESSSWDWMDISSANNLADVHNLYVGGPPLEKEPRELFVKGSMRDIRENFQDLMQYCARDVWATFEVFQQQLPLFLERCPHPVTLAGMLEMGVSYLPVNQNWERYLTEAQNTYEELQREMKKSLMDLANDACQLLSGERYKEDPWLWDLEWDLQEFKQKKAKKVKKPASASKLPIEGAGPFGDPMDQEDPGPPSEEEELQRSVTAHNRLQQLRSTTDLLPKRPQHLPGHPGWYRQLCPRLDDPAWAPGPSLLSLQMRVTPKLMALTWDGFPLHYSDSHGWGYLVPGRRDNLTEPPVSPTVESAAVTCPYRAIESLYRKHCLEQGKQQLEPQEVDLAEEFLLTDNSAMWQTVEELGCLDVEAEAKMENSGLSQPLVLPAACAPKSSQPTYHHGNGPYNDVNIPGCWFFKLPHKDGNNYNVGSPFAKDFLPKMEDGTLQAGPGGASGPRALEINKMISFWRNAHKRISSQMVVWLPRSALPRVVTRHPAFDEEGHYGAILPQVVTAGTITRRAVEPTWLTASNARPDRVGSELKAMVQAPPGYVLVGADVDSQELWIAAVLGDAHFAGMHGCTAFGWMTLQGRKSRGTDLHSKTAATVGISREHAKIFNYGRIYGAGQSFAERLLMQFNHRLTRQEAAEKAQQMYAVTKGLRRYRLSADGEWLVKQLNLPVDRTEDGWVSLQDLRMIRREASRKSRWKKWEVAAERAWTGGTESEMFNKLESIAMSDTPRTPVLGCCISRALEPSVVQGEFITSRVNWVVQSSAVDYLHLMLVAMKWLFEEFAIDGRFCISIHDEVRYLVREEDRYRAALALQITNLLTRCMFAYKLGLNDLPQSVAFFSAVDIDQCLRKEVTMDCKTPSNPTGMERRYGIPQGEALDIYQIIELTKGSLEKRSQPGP
Test: EMSA; POLγA alone; 10 mM MgCl2, ddGTP, dCTP, ATP; Kd in Suppl. Fig. 5A, value not in material; EMSA: 10 fmol DNA in 15 µl, 20 mM Tris-HCl pH 7.8, 1 mM DTT, 0.1 mg/ml BSA, 10 mM MgCl2, 10% glycerol, 2 mM ATP, 0.3 mM ddGTP, 3 mM dCTP, RT 10 min; 6% native PAGE 0.5x TBE
Conditions: protein: recombinant; label: 5'-32P on strand 2 (21-mer); 5' overhang 15 nt on strand 1; 21 bp duplex; primer-template

B1: 36-nt/21-nt primed template (mixed)
DNA 1: TTTTTTTTTTATCCGGGCTCCTCTAGACTCGACCGC
DNA 2: GCGGTCGAGTCTAGAGGAGCC
- binding result: binds
